# Source: patent US7405286B2, “Stars—A muscle-specific actin-binding protein” (The Board of Regents of the University of Texas System, priority 2002, dated 2008)
# “Also recorded” adds a separate entry of the source.
# B1: STARS: novel 375-amino acid muscle-specific actin-binding protein, expressed from a Myc-tagged expression vector (protein, UniProt Q8BUZ1 1-375, looked up)
# Actin-binding Rho-activating …: MAPGEREREAGPAKSALRKVRTATLVINLARGWQQWANENSTKQAQEPAGWLPGATHDLPNAPKEAGPYQHAPKTLSPKPDRDGEGQHSEEATEVSHIKRKEVTRTVVSKAYERGGDVNYLSHRYENDGGVSEAIQPENDIDRILLSHDSPTRRRKCTNLVSELTKGWKVMEQEEPTWKSDSVDTEDSGYGGDMEERPEQDAAPVAPARIKRPLLSQANRYSETLNCKAHRKYSQVDNLKGRWQQWADEHVQSQKLNPFSDEFDYDLAMSTRLHKGDEGYGRPKEGSKTAERAKRAEEHIYREIMELCFVIRTMARHRRDGKIQVTFGELFDRYVRISDKVVGILMRARKHGLVHFEGEMLWQGRDDHVVITLLE
# modifications: Myc tag
# Assays:
# [1] = system: E1b promoter linked to four tandem copies of the CArG box from the c-fos promoter; test: 4× cfos CArG box reporter assay in COS cells; format: cell-based
# Description: (§1) STARS Expression Plasmids. STARS expression constructs were generated using the pcDNA3.1 mammalian expression vector (Invitrogen) which was modified to contain an amino-terminal Myc-tag. Constitutively active RhoA (L63) and C3 transferase in Prk5 were generously provided by Dr. Alan Hall (University College, London, United Kingdom). The SM22-luciferase reporter 1343 bp promoter has been previously described (Li et al., 1995). The smooth muscle α actin-luciferase reporter contained the 4 kb promoter region ligated into the pBL3basic vector (Promega). The ANF reporter contained the 638 bp promoter region (a generous gift from Dr. Mona Nemer, Universite de Montreal, Montreal, Quebec, Canada). The 4× cfos reporter contained four tandem copies of the cfos CArG box with flanking sequences, as described (Chang et al., 2001). CMV-lacZ (Promega) was used as an internal control for transfection efficiency.
# (§2) Transient Transfections, Reporter Assays and Immunofluorescence Microscopy. COS cells were maintained in DMEM with 10% FBS. Eighteen hours after plating, the medium was changed to serum-free medium and transfections were performed at 50% confluency using FuGENE reagent-6 (Roche Molecular Biochemicals) following manufacturer's instructions. […] Cells were harvested 36 hr after transfection and their luciferase and β-galactosidase activity were measured.
# SM22 promoter [2] = test: SM22-luciferase reporter assay in F9 cells; format: cell-based; conditions: low endogenous SRF expression
# [3] = system: α-smooth muscle actin promoter; test: smooth muscle α actin-luciferase reporter assay in COS cells; format: cell-based
# Description: as §1, §2
# [4] = system: atrial natriuretic factor (ANF) promoter; test: ANF reporter assay in COS cells; format: cell-based
# Description: as §1, §2
# actin = test: Co-immunoprecipitation of Myc-tagged proteins with actin in COS cells; format: binding; conditions: anti-Myc immunoprecipitation, anti-actin Western blot
# Protocol: Western Blot and Co-immunoprecipitation Assay. Immunoprecipitation and western blot analysis was performed as described previously (Lu et al., 2000). For immunoprecipitation, cells were incubated with 1 μg anti c-myc polyclonal antibody A14 (Santa Cruz). Western blots were performed with anti-actin monoclonal antibody C4 (1:100; Roche Molecular Biochemicals) or anti c-myc monoclonal antibody 9E10 (1:1000; Santa Cruse) followed by incubation with secondary antibody HRP-conjugated anti mouse-IgG (Santa Cruse, Vector). To detect signals, blots were incubated with ECL (Santa Cruz) for 1 min, and exposed to film (Eastman Kodak Co).
# F-actin = test: Immunofluorescence / Phalloidin-TRITC staining of transfected COS cells; format: cell-based; conditions: transfected COS cells, Myc-tagged proteins
# Protocol: (§3) Transient Transfections, Reporter Assays and Immunofluorescence Microscopy. COS cells were maintained in DMEM with 10% FBS. Eighteen hours after plating, the medium was changed to serum-free medium and transfections were performed at 50% confluency using FuGENE reagent-6 (Roche Molecular Biochemicals) following manufacturer's instructions. Each transfection used 0.15 μg of plasmid DNA for the reporter assays, and 0.5-1.0 μg immunohistochemistry. Cytochalasin D 2 μM (Sigma-Aldrich), and Y-27632 75 μM (Tocris) were added directly just after transfection. Latrunculin B 0.5 μM (dissolved in 10% ethanol, Calbiochem) was added 12 hr after transfection and 10% ethanol (final concentration 0.01%) was added to control wells. Cells were harvested 36 hr after transfection and their luciferase and β-galactosidase activity were measured.
# For measuring immunofluorescence, cells were rinsed with PBS and fixed in 4% paraformaldehyde for 10 min on ice. After rinsing with PBS, COS cells were incubated in 0.1% Triton X-100 in PBS for 5 min on ice. For rat neonatal cardiomyocytes, 1% Triton X-100 in PBS was used. Cells were blocked for 20 min at room temperature in 0.5% BSA in PBS for COS cells and in 1% BSA plus 3% goat serum in PBS for rat cardiomyocytes. Then, cells were incubated with first antibody diluted in 0.5% BSA in PBS for 30-60 min at room temperature or overnight at 4° C. Anti c-myc monoclonal antibody 9E10 (Santa Cruz) was used at a 1:200 dilution. Other antibodies were anti α-actinin monoclonal antibody (1:400; Sigma-Aldrich), α-tubulin antibody (1:2000; Sigma-Aldrich) and anti-vimentin antibody (1:500; Sigma-Aldrich). Secondary antibodies were anti mouse/rabbit IgG FITC or Texas red (Vector) used at a 1:200 dilution incubated with or without Phalloidin-TRITC (1:500; Sigma Aldrich).
# SM22 promoter [5] = test: SM22-luciferase reporter assay in transiently transfected COS cells; format: cell-based
# Description: as §1, §3
# cytomegalovirus promoter = cytomegalovirus promoter reporter assay; format: cell-based; conditions: data not shown
# Description: as §1, §2
molecule,measurement,setting,value
B1,activation of E1b promoter with four c-fos CArG boxes,[1],activated
same,effect on the SM22 promoter,SM22 promoter [2],minimal effect
same,stimulation of α-smooth muscle actin promoter,[3],weakly stimulated
same,stimulation of ANF promoter,[4],did not stimulate; also recorded: could not activate
same,co-immunoprecipitation with actin,actin,co-immunoprecipitated with actin
same,association with F-actin / actin stress fibers,F-actin,strongly colocalized with F-actin
same,bundling of actin stress fibers,F-actin,induced stress fiber formation and bundling
same,association with F-actin / actin stress fibers,F-actin; listed as STARS (wt),strongly associates with F-actin
same,bundling of actin stress fibers,F-actin; listed as STARS (wt),induces extremely thick bundles
same,bundling of actin stress fibers,F-actin; listed as Wild type STARS,induce actin bundles
same,"activation of SM22-luciferase / SRF transcription, in words","SM22 promoter [5]; COS cells, STARS and deletion mutants",activate SRF transcription
same,activation of the SM22 promoter,"SM22 promoter [5]; COS cells, STARS or RhoA (L63) expression vector alone",comparable levels
same,increase of SM22 promoter activity by STARS,"SM22 promoter [5]; COS cells, in the presence of CD (2 μM)",18 fold
same,responsiveness of SM22 promoter with mutated CArG boxes,"SM22 promoter [5]; COS cells, mutSM22 reporter",abolished responsiveness
same,stimulation of expression of SM22 luciferase reporter,"SM22 promoter [5]; transiently transfected COS cells, STARS expression vector",40 fold
same,activation of cytomegalovirus promoter,cytomegalovirus promoter,did not activate
